Source: PMC10397247
Like-named read-outs stand apart in the source and are kept apart here.

T1: O13-AA
T1 chain: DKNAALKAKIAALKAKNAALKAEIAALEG

T2: 4H1385-AA
T2 chain: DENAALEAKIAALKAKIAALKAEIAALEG

T3: O14-AA
T3 chain: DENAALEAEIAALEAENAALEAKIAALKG

T4: 4H3782-AA
T4 chain: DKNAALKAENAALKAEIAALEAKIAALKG

T5: 4H3414-AA
T5 chain: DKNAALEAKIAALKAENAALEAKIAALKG

T6: 4H3129-AA
T6 chain: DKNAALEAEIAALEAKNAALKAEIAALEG

T7: 4H63-AA
T7 chain: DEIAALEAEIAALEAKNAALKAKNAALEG

T8: 4H3939-AA
T8 chain: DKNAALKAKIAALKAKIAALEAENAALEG

T9: 4H3629-AA
T9 chain: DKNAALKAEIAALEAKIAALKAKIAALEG

T10: 4H2961-AA
T10 chain: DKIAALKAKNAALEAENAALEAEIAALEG

T11: 4H341-AA
T11 chain: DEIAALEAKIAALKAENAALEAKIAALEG

T12: 4H3056-AA
T12 chain: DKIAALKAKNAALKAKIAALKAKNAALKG

T13: 4H3133-AA
T13 chain: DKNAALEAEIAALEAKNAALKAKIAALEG

T14: 4H3162-AA
T14 chain: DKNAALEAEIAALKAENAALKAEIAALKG

T15: 4H2620-AA
T15 chain: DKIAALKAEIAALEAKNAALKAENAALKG

T16: 4H1597-AA
T16 chain: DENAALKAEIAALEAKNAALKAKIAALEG

T17: 4H2553-AA
T17 chain: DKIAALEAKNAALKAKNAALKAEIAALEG

T18: 4H1310-AA
T18 chain: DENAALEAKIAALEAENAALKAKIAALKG

T19: 4H1845-AA
T19 chain: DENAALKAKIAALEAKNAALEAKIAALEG

T20: 4H3588-AA
T20 chain: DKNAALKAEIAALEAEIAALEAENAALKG

T21: 4H3413-AA
T21 chain: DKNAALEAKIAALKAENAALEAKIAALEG

T22: 4H566-AA
T22 chain: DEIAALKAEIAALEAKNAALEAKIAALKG

T23: 4H678-AA
T23 chain: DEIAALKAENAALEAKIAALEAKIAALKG

T24: 4H605-AA
T24 chain: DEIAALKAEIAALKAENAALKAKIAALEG

T25: 4H906-AA
T25 chain: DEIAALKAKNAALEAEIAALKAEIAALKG

T26: 4H3427-AA
T26 chain: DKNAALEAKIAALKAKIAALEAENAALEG

T27: 4H794-AA
T27 chain: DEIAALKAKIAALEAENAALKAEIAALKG

T28: 4H317-AA
T28 chain: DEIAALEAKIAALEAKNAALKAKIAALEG

T29: 4H2944-AA
T29 chain: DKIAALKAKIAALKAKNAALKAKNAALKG

T30: 4H2949-AA
T30 chain: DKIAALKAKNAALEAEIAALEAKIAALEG

T31: 4H429-AA
T31 chain: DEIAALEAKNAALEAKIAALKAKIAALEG

T32: 4H3844-AA
T32 chain: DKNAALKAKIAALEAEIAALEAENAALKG

T33: 4H2505-AA
T33 chain: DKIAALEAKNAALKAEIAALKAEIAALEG

T34: 4H2617-AA
T34 chain: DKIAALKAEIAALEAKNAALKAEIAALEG

T35: 4H234-AA
T35 chain: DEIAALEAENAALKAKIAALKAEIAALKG

T36: 4H3015-AA
T36 chain: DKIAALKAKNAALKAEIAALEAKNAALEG

T37: 4H2732-AA
T37 chain: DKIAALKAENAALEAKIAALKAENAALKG

T38: 4H347-AA
T38 chain: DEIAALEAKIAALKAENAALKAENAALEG

T39: 4H3001-AA
T39 chain: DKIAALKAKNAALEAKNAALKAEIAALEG

T40: 4H2931-AA
T40 chain: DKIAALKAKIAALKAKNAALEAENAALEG

T41: 4H3438-AA
T41 chain: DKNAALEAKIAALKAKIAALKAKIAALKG

T42: 4H2592-AA
T42 chain: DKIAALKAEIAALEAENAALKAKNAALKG

T43: P10-AA
T43 chain: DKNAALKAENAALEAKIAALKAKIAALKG

B1: 4H1350-AA (peptide)
chain: DENAALEAKIAALKAEIAALEAKIAALKG
B2: 4H1064-AA (peptide)
chain: DENAALEAEIAALEAKIAALEAKNAALKG
B3: 4H1142-AA (peptide)
chain: DENAALEAEIAALKAKNAALEAKIAALKG
B4: 4H1153-AA (peptide)
chain: DENAALEAENAALEAEIAALEAEIAALEG
B5: 4H2165-AA (peptide)
chain: DKIAALEAEIAALKAKNAALEAKIAALEG
B6: 4H171-AA (peptide)
chain: DEIAALEAENAALEAKIAALKAENAALEG
B7: 4H1401-AA (peptide)
chain: DENAALEAKIAALKAKNAALKAEIAALEG

Assays:
Assay in all cases: two-hybrid library CCmax;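 further: natural log of median RNA to DNA barcode read ratio; higher means stronger binding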
O13-AA = target: T1, O13-AA; details: mean of both orientations
4H1385-AA = target: T2, 4H1385-AA
O14-AA = target: T3, O14-AA; details: mean of both orientations
4H3782-AA = target: T4, 4H3782-AA; details: mean of both orientations
4H3414-AA = target: T5, 4H3414-AA; details: mean of both orientations
4H3129-AA = target: T6, 4H3129-AA; details: mean of both orientations
4H63-AA = target: T7, 4H63-AA; details: mean of both orientations
4H3939-AA = target: T8, 4H3939-AA; details: mean of both orientations
4H3629-AA = target: T9, 4H3629-AA; details: mean of both orientations
4H2961-AA = target: T10, 4H2961-AA; details: mean of both orientations
4H341-AA = target: T11, 4H341-AA; details: mean of both orientations
4H3056-AA = target: T12, 4H3056-AA; details: mean of both orientations
4H3133-AA = target: T13, 4H3133-AA; details: mean of both orientations
4H3162-AA = target: T14, 4H3162-AA; details: mean of both orientations
4H2620-AA = target: T15, 4H2620-AA; details: mean of both orientations
4H1597-AA = target: T16, 4H1597-AA; details: mean of both orientations
4H2553-AA = target: T17, 4H2553-AA
4H1310-AA = target: T18, 4H1310-AA; details: mean of both orientations
4H1845-AA = target: T19, 4H1845-AA; details: mean of both orientations
4H3588-AA = target: T20, 4H3588-AA
4H3413-AA = target: T21, 4H3413-AA; details: mean of both orientations
4H566-AA = target: T22, 4H566-AA; details: mean of both orientations
4H678-AA = target: T23, 4H678-AA; details: mean of both orientations
4H605-AA = target: T24, 4H605-AA; details: mean of both orientations
4H906-AA = target: T25, 4H906-AA; details: mean of both orientations
4H3427-AA = target: T26, 4H3427-AA; details: mean of both orientations
4H794-AA = target: T27, 4H794-AA; details: mean of both orientations
4H317-AA = target: T28, 4H317-AA
4H2944-AA = target: T29, 4H2944-AA; details: mean of both orientations
4H2949-AA = target: T30, 4H2949-AA; details: mean of both orientations
4H429-AA = target: T31, 4H429-AA; details: mean of both orientations
4H3844-AA = target: T32, 4H3844-AA; details: mean of both orientations
4H2505-AA = target: T33, 4H2505-AA; details: mean of both orientations
4H2617-AA = target: T34, 4H2617-AA; details: mean of both orientations
4H234-AA = target: T35, 4H234-AA; details: mean of both orientations
4H3015-AA = target: T36, 4H3015-AA; details: mean of both orientations
4H2732-AA = target: T37, 4H2732-AA; details: mean of both orientations
4H347-AA = target: T38, 4H347-AA; details: mean of both orientations
4H3001-AA = target: T39, 4H3001-AA; details: mean of both orientations
4H2931-AA = target: T40, 4H2931-AA; details: mean of both orientations
4H3438-AA = target: T41, 4H3438-AA; details: mean of both orientations
4H2592-AA = target: T42, 4H2592-AA; details: mean of both orientations
P10-AA = target: T43, P10-AA; details: mean of both orientations

Row | interaction score (4H3056-AA) | interaction score (4H3133-AA) | interaction score (4H3162-AA) | interaction score (4H2620-AA) | interaction score (4H1845-AA) | interaction score (4H3413-AA) | interaction score (4H566-AA) | interaction score (4H678-AA) | interaction score (4H605-AA) | interaction score (4H906-AA) | interaction score (4H3427-AA) | interaction score (4H794-AA) | interaction score (4H2944-AA) | interaction score (4H2949-AA) | interaction score (4H429-AA) | interaction score (4H3844-AA) | interaction score (4H2505-AA) | interaction score (4H2617-AA) | interaction score (4H234-AA) | also measured | Binder
1 | – | – | – | – | – | – | – | – | – | – | – | – | – | – | – | – | – | – | – | interaction score (O13-AA): 0.34; interaction score (4H1385-AA; mean of both orientations): 2.18; interaction score (O14-AA): -0.655 | B1
2 | – | – | – | – | – | – | – | – | – | – | – | – | – | – | – | – | – | – | – | interaction score (4H3782-AA): -0.855; interaction score (4H3414-AA): -0.952; interaction score (4H3129-AA): -1.71; interaction score (4H63-AA): -1.29; interaction score (4H3939-AA): 2.3; interaction score (4H3629-AA): 0.654; interaction score (4H2961-AA): -1.24; interaction score (4H341-AA): -1.26 | B2
3 | -1.15 | -0.11 | -1.46 | -1.34 | -0.689 | 0.554 | – | – | – | – | – | – | – | – | – | – | – | – | – | interaction score (4H1385-AA): -1.1; interaction score (4H1597-AA): 0.572; interaction score (4H2553-AA; mean of both orientations): -1.85; interaction score (4H1310-AA): -1.26; interaction score (4H3588-AA): -1.17 | B3
4 | 1.46 | -2.15 | -1.68 | -1.41 | -1.27 | -1.92 | -1.5 | -0.487 | -1.75 | -1.21 | -0.781 | -1.49 | -0.0983 | -0.947 | 0.137 | -0.484 | 0.301 | -2.01 | 0.621 | interaction score (4H317-AA; mean of both orientations): -1.45; interaction score (4H2553-AA; mean of both orientations): -0.371; interaction score (4H1310-AA): -1.28; interaction score (4H3588-AA; mean of both orientations): -1.29 | B4
5 | – | – | – | – | – | – | 0.482 | -0.25 | -1.15 | -1.29 | -1.3 | -1.31 | -1.53 | -1.21 | -1.87 | -1.35 | -1.7 | 0.892 | -1.27 | interaction score (4H3015-AA): -1.54; interaction score (4H2732-AA): -1.36; interaction score (4H347-AA): -1.3; interaction score (4H3001-AA): -1.67; interaction score (4H2931-AA): -1.58; interaction score (4H3438-AA): -1.07; interaction score (4H2592-AA): -0.973; interaction score (4H317-AA; mean of both orientations): 0.575 | B5
6 | – | – | – | – | – | – | – | – | – | – | – | – | – | – | – | – | – | – | – | interaction score (O13-AA): 2.21; interaction score (P10-AA): -1.48; interaction score (O14-AA): -1.07 | B6
7 | -1.2 | -0.677 | -0.375 | -1.63 | -1.13 | 0.857 | 1.79 | -0.21 | -1.38 | -1.91 | -1.52 | -1.02 | -1.67 | 0.393 | 0.239 | -0.79 | -1.67 | -0.502 | 0.335 | interaction score (P10-AA): -0.931; interaction score (4H317-AA): -1.49; interaction score (4H2553-AA): -1.65; interaction score (4H3588-AA; mean of both orientations): -0.275 | B7
